From US20240148901A1

Molecular target: Recombinant gp120JR-FL (MyBioSource) (HIV)
Test: modified gp120 ELISA: gp120JR-FL coated plate, NanoLuc luminescence read-out

sensitivity of the gp120 ELISA: 500 pg/mL
Substance: secreted PGT121-NanoLuc, purified (antibody)
